Measurements as given in publication PMC9156947.

Tests used:
N8-HBx = N8-HBx (UniProt P03165); test: tripartite Nanoluc system (luciferase complementation); details: HepG2 cells; co-transfected with a plasmid expressing Nano1-7; luciferase activity measured 48 h post-transfection; parent: 100%
[1] = biological target: C10-STAU1 with the RBD2 domain deleted (UniProt O95793); test: split reporter (BiFC, NanoBiT); tripartite Nanoluc luciferase: C10-tagged and N8-tagged proteins co-transfected with a plasmid expressing Nano1-7 into HepG2 cells; luciferase activity measured 48 h post-transfection
C10-DDB1 = C10-DDB1 (UniProt Q16531); test: tripartite Nanoluc system (luciferase complementation); details: HepG2 cells; co-transfected with a plasmid expressing Nano1-7; luciferase activity measured 48 h post-transfection; parent: 100%
C10-DDB1M381/2 = test: as above; details: HepG2 cells; co-transfected with a plasmid expressing Nano1-7; luciferase activity measured 48 h post-transfection; parent: 100%

C10-DDB1, sequence (Q16531 whole entry): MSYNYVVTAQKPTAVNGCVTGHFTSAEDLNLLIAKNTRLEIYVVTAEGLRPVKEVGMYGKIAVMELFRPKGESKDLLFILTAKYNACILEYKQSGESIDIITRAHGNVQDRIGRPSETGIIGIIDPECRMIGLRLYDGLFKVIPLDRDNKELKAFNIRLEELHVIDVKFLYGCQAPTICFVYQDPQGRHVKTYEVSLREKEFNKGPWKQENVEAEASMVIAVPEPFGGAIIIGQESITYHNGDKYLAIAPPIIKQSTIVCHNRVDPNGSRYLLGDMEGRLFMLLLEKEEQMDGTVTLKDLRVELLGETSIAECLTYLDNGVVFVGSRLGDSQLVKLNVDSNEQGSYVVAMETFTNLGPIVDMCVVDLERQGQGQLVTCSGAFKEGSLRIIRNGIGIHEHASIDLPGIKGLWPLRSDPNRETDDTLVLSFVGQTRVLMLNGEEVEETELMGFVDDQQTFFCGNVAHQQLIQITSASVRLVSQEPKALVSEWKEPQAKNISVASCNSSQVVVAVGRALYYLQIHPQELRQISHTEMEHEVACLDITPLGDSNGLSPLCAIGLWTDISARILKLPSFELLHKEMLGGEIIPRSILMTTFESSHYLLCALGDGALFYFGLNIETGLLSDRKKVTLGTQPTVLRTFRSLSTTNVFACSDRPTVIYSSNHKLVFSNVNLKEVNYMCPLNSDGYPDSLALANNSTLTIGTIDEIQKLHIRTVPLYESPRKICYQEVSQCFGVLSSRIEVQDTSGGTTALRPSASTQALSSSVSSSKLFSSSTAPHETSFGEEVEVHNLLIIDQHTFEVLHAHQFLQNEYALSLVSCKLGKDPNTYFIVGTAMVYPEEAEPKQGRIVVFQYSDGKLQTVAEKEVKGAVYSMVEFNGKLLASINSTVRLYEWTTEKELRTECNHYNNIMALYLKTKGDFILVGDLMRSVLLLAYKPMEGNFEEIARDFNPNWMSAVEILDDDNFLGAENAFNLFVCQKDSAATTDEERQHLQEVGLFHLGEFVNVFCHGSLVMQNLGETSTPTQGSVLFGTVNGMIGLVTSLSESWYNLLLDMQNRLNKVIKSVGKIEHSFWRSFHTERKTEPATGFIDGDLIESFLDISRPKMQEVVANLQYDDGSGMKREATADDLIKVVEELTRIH

Substance: C10-DDB1 (from UniProt Q16531) M381/2
- percent of parent (N8-HBx): 0.68%

Substance: N8-HBx (from UniProt P03165 1-154) (natural protein)
- fold luminescence against wild type STAU1 [1]: 2 fold

Substance: N8-HBx (from UniProt P03165) 96E
- percent of parent (C10-DDB1): 0.25%

Substance: m3; m4 HBx:96E; DDB1:M381/2
- percent of parent (C10-DDB1M381/2): 0.2%
